From patent US20230391858A1 (ANNEXON, published 2023)

Key:
[1] = molecular target: T1, human complement factor C1q (chains A, B and C) (human, UniProt P02745 23-245; P02746 28-253; P02747 29-245); assay: method not stated; affinity stated in the description
T1 construct: In the assays C1q was the native protein in normal human serum or plasma; also called Human C1q

[2] = molecular target: T1, human complement factor C1q (chains A, …); assay: cell-based or functional assay

T1 sequence (P02745 23-245 limits assumed, chain 1 of 3): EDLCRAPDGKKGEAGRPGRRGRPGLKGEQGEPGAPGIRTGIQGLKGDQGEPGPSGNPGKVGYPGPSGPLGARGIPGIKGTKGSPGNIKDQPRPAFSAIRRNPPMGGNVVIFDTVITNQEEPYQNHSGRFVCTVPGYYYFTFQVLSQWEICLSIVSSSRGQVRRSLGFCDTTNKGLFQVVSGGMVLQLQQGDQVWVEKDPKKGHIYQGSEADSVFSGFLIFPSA
T1 sequence (P02746 28-253 limits assumed, chain 2 of 3): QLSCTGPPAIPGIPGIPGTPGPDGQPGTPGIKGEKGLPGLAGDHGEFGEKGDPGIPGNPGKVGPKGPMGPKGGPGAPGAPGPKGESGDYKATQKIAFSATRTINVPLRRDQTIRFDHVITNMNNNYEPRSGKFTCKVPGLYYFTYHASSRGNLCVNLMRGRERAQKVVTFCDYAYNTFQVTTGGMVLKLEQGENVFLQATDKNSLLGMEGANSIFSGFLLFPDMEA
T1 sequence (P02747 29-245 limits assumed, chain 3 of 3): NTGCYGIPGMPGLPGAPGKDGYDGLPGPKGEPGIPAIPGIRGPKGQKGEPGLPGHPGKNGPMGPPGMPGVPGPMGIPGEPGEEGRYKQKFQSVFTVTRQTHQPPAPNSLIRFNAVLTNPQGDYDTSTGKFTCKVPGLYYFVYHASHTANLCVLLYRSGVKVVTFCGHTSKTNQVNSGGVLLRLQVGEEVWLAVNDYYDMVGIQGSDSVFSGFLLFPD

Kd [1]: 0.01 nM | IC50 of inhibition of C4 and C3d deposition on human RBCs (flow cytometry) [2]: ~10 nM
B1: FabA, anti-C1q antibody Fab fragment comprising heavy chain Fab fragment of SEQ ID NO: 39 and light chain Fab fragment of SEQ ID NO: 40 (Fab)
heavy: QVQLVQSGAELKKPGASVKVSCKSSGYHFTSYWMHWVKQAPGQGLEWIGVIHPNSGSINYNEKFESRVTITVDKSTSTAYMELSSLRSEDTAVYYCAGERDSTEVLPMDYWGQGTTVTVSSASTKGPSVFPLAPSSKSTSGGTAALGCLVKDYFPEPVTVSWNSGALTSGVHTFPAVLQSSGLYSLSSVVTVPSSSLGTQTYICNVNHKPSNTKVDKKVEPKSCDKTHT
light: DVQITQSPSSLSASLGERATINCRASKSINKYLAWYQQKPGKAPKLLIYSGSTLQSGIPARFSGSGSGTDFTLTISSLEPEDFAMYYCQQHNEYPLTFGQGTKLEIKRTVAAPSVFIFPPSDEQLKSGTASVVCLLNNFYPREAKVQWKVDNALQSGNSQESVTEQDSKDSTYSLSSTLTLSKADYEKHKVYACEVTHQGLSSPVTKSFNRGEC
notes: The heavy chain is truncated after the first heavy chain constant domain of IgG1; also called anti-C1q monovalent Fab; anti-C1q Fab
IC50 for inhibition of hemolysis of CAD-sensitized human RBCs in normal human serum [2]: ~10 nM
